B1: 1503_H05 (PG16) (TCN-119) (antibody, V domains shown)
VH: QEKLVESGGGVVQPGGSLRLSCLASGFTFHKYGMHWVRQAPGKGLEWVALISDDGMRKYHSDSMWGRVTISRDNSKNTLYLQFSSLKVEDTAMFFCAREAGGPIWHDDVKYYDFNDGYYNYHYMDVWGKGTIVTVSS
VL: QSALTQPASVSGSPGQTITISCNGTRSDVGGFDSVSWYQQSPGKAPKVMVFDVSHRPSGISNRFSGSKSGNTASLTISGLHIEDEGDYFCSSLTDRSHRIFGGGTKVTVLG
B2: 1456_A12 (PG16) (TCN-117) (antibody, V domains shown)
VH: HEQLVEAGGGVVQPGGSLRLSCLASGFTFHKYGMHWVRQAPGKGLEWVALISDDGMRKYHSDSMWGRVTISRDNSKNTLYLQFSSLRVEDTAMFFCAREAGGPIWHDDVKYYDFNDGYYNYHYMDVWGKGTKVTVSS
VL: QSALTQPASVSGSPGQTITISCNGTSRDVGGFDSVSWYQQSPGKAPKVMVFDVSHRPSGMSNRFSGSKSGNTASLTISGLHIEDEGDYFCSSLTDRSHRIFGGGTKLTVLG
B3: PGT-123 monoclonal antibody (antibody, V domains shown)
VH: QLHLQESGPGLVKPPETLSLTCSVSGASINDAYWSWIRQSPGKRPEWVGYVHHSGDTNYNPSLKRRVTFSLDTAKNEVSLKLVDLTAADSATYFCARALHGKRIYGIVALGELFTYFYMDVWGKGTAVTVSS
VL: SSMSVSPGETAKISCGKESIGSRAVQWYQQKPGQPPSLIIYNNQDRPAGVPERFSASPDFRPGTTATLTITNVDAEDEADYYCHIYDARGGTNWVFDRGTTLTVL
B4: PGT-125 monoclonal antibody (antibody, V domains shown)
VH: QSQLQESGPRLVEASETLSLTCNVSGESTGACTYFWGWVRQAPGKGLEWIGSLSHCQSFWGSGWTFHNPSLKSRLTISLDTPKNQVFLKLTSLTAADTATYYCARFDGEVLVYNHWPKPAWVDLWGRGIPVTVSS
VL: QSALTQPPSASGSPGQSITISCNGTATNFVSWYQQFPDKAPKLIIFGVDKRPPGVPDRFSGSRSGTTASLTVSRLQTDDEAVYYCGSLVGNWDVIFGGGTTLTVL
B5: PGT-126 monoclonal antibody (antibody, V domains shown)
VH: QPQLQESGPGLVEASETLSLTCTVSGDSTAACDYFWGWVRQPPGKGLEWIGGLSHCAGYYNTGWTYHNPSLKSRLTISLDTPKNQVFLKLNSVTAADTAIYYCARFDGEVLVYHDWPKPAWVDLWGRGTLVTVSS
VL: QSALTQPPSASGSPGQSISISCTGTSNRFVSWYQQHPGKAPKLVIYGVNKRPSGVPDRFSGSKSGNTASLTVSGLQTDDEAVYYCSSLVGNWDVIFGGGTKLTVL
B6: PGT-130 monoclonal antibody (antibody, V domains shown)
VH: QVQLQESGPGLVKPAETLSLTCSVSGESINTGHYYWGWVRQVPGKGLEWIGHIHYTTAVLHNPSLKSRLTIKIYTLRNQITLRLSNVTAADTAVYHCVRSGGDILYYYEWQKPHWFSPWGPGIHVTVSS
VL: QSALTQPPSASGSLGQSVTISCNGTSSDIGGWNFVSWYQQFPGRAPRLIIFEVNKRPSGVPGRFSGSKSGNSASLTVSGLQSDDEGQYFCSSLFGRWDVVFGGGTKLTVL
B7: PGT-135 monoclonal antibody (antibody, V domains shown)
VH: QLQMQESGPGLVKPSETLSLSCTVSGDSIRGGEWGDKDYHWGWVRHSAGKGLEWIGSIHWRGTTHYKESLRRRVSMSIDTSRNWFSLRLASVTAADTAVYFCARHRHHDVFMLVPIAGWFDVWGPGVQVTVSS
VL: EIVMTQSPDTLSVSPGETVTLSCRASQNINKNLAWYQYKPGQSPRLVIFETYSKIAAFPARFVASGSGTEFTLTINNMQSEDVAVYYCQQYEEWPRTFGQGTKVDIK
B8: PGT-136 monoclonal antibody (antibody, V domains shown)
VH: QLQLQESGPGLVKPSETLSLTCTVSGGSMRGTDWGENDFHYGWIRQSSAKGLEWIGSIHWRGRTTHYKTSFRSRATLSIDTSNNRFSLTFSFVTAADTAVYYCARHKYHDIFRVVPVAGWFDPWGQGLLVTVSS
VL: EIVMTQSPPTLSVSPGETATLSCRASQNVKNNLAWYQLKPGQAPRLLIFDASSRAGGIPDRFSGSGYGTDFTLTVNSVQSEDFGDYFCQQYEEWPRTFGQGTKVDIK

Tests used:
Test in all cases: cell-based or functional assay
[1] = molecular target: HIV-1 Env of isolate CAP45 (HIV-1)
[2] = molecular target: HIV-1 Env of isolate THRO.18 (HIV-1)
[3] = molecular target: HIV-1 JR-CSF Env I309A (pseudovirus) (HIV-1 JR-CSF) (UniProt P20871)
[4] = molecular target: HIV-1 Env of isolate ZM214 (HIV-1)
[5] = molecular target: HIV-1 Env of isolate Du172 (HIV-1)
[6] = molecular target: HIV-1 Env of isolate ZM249 (HIV-1)
[7] = molecular target: HIV-1 Env of isolate PVO.4 (HIV-1)
[8] = molecular target: HIV-1 Env of isolate CAAN (HIV-1)
[9] = molecular target: HIV-1 JR-CSF Env Y318A (pseudovirus) (HIV-1 JR-CSF) (UniProt P20871)
[10] = molecular target: HIV-1 92RW020 Env (pseudovirus) (HIV-1 92RW020)
[11] = molecular target: HIV-1 Env of isolate TR0.11 (HIV-1)
[12] = molecular target: HIV-1 JR-CSF Env, wild type (pseudovirus) (HIV-1 JR-CSF) (UniProt P20871)
[13] = molecular target: HIV-1 Env of isolate ZM233 (HIV-1)
[14] = molecular target: HIV-1 Env of isolate AC10 (HIV-1)
[15] = molecular target: MuLV envelope protein (control pseudovirus) (MuLV)
[16] = molecular target: HIV-1 ADA Env (pseudovirus) (HIV-1 ADA)
[17] = molecular target: HIV-1 Env of isolate DU422 (HIV-1)
[18] = molecular target: HIV-1 JR-FL Env E168K (pseudovirus) (HIV-1 JR-FL)
[19] = molecular target: HIV-1 Env of isolate REJ04541 (HIV-1)
[20] = molecular target: HIV-1 Env of isolate DU156 (HIV-1)
[21] = molecular target: HIV-1 CMU02 envelope glycoprotein (Env) on pseudovirus (HIV-1)
[22] = molecular target: HIV-1 92UG005 envelope glycoprotein (Env) on pseudovirus (HIV-1)
[23] = molecular target: HIV-1 MGRM-D-018 envelope glycoprotein (Env) on pseudovirus (HIV-1)
[24] = molecular target: HIV-1 MGRM-D-001 envelope glycoprotein (Env) on pseudovirus (HIV-1)
[25] = molecular target: HIV-1 MGRM-AG-005 envelope glycoprotein (Env) on pseudovirus (HIV-1)
[26] = molecular target: HIV-1 92TH021 envelope glycoprotein (Env) on pseudovirus (HIV-1)
[27] = molecular target: aMLV envelope protein on pseudovirus (negative control virus)
[28] = molecular target: HIV-1 92UG024 envelope glycoprotein (Env) on pseudovirus (HIV-1)

Binder	IC50, pseudovirus neutralization [21] [µg/mL]	IC50, pseudovirus neutralization [22] [µg/mL]	IC50, pseudovirus neutralization [23] [µg/mL]	IC50, pseudovirus neutralization [24] [µg/mL]	IC50, pseudovirus neutralization [25] [µg/mL]	IC50, pseudovirus neutralization [26] [µg/mL]	IC50, pseudovirus neutralization [27] [µg/mL]	IC50, pseudovirus neutralization [28] [µg/mL]	other results
B1	–	–	–	–	–	–	–	–	IC50, pseudovirus neutralization (TZM-bl) [1]: < 0.01 µg/mL; IC50, pseudovirus neutralization (TZM-bl) [2]: 4.12 µg/mL; IC50 (ug/ml), neutralization [3]: > 1 µg/mL; IC50, pseudovirus neutralization (TZM-bl) [4]: > 25 µg/mL; IC50, pseudovirus neutralization (TZM-bl) [5]: < 0.01 µg/mL; IC50, pseudovirus neutralization (TZM-bl) [6]: < 0.01 µg/mL; IC50, pseudovirus neutralization (TZM-bl) [7]: 11 µg/mL; IC50, pseudovirus neutralization (TZM-bl) [8]: 13.5 µg/mL; IC50 (ug/ml), neutralization [9]: > 1 µg/mL; IC50 (ug/ml), neutralization [10]: 0.02 µg/mL; IC50, pseudovirus neutralization (TZM-bl) [11]: 4.3 µg/mL; IC50 (ug/ml), neutralization [12]: 0.001 µg/mL; IC50, pseudovirus neutralization (TZM-bl) [13]: < 0.01 µg/mL; IC50, pseudovirus neutralization (TZM-bl) [14]: < 0.01 µg/mL; IC50, pseudovirus neutralization (TZM-bl), control virus [15]: > 25 µg/mL; IC50 (ug/ml), neutralization [16]: 0.003 µg/mL; IC50, pseudovirus neutralization (TZM-bl) [17]: 0.71 µg/mL; IC50 (ug/ml), neutralization [18]: 0.002 µg/mL; IC50, pseudovirus neutralization (TZM-bl) [19]: 0.22 µg/mL; IC50, pseudovirus neutralization (TZM-bl) [20]: < 0.01 µg/mL
B2	–	–	–	–	–	–	–	–	IC50, pseudovirus neutralization (TZM-bl) [1]: < 0.01 µg/mL; IC50, pseudovirus neutralization (TZM-bl) [2]: 2.08 µg/mL; IC50 (ug/ml), neutralization [3]: > 1 µg/mL; IC50, pseudovirus neutralization (TZM-bl) [4]: > 25 µg/mL; IC50, pseudovirus neutralization (TZM-bl) [5]: < 0.01 µg/mL; IC50, pseudovirus neutralization (TZM-bl) [6]: < 0.01 µg/mL; IC50, pseudovirus neutralization (TZM-bl) [7]: 10.4 µg/mL; IC50, pseudovirus neutralization (TZM-bl) [8]: 10.6 µg/mL; IC50 (ug/ml), neutralization [9]: > 1 µg/mL; IC50 (ug/ml), neutralization [10]: 0.05 µg/mL; IC50, pseudovirus neutralization (TZM-bl) [11]: 3.05 µg/mL; IC50 (ug/ml), neutralization [12]: 0.001 µg/mL; IC50, pseudovirus neutralization (TZM-bl) [13]: < 0.01 µg/mL; IC50, pseudovirus neutralization (TZM-bl) [14]: < 0.01 µg/mL; IC50, pseudovirus neutralization (TZM-bl), control virus [15]: > 25 µg/mL; IC50 (ug/ml), neutralization [16]: 0.005 µg/mL; IC50, pseudovirus neutralization (TZM-bl) [17]: 0.36 µg/mL; IC50 (ug/ml), neutralization [18]: 0.003 µg/mL; IC50, pseudovirus neutralization (TZM-bl) [19]: < 0.01 µg/mL; IC50, pseudovirus neutralization (TZM-bl) [20]: < 0.01 µg/mL
B3	> 10	2.49	0.0047	0.215	0.104	> 10	> 10	> 10	–
B4	> 10	> 10	0.0382	2.31	> 10	0.0066	> 10	> 10	–
B5	> 10	0.0181	0.0093	0.0639	1.35	0.115	> 10	> 10	–
B6	> 10	0.474	0.0378	> 10	0.947	0.0082	> 10	> 10	–
B7	> 10	> 10	0.0433	> 10	> 10	> 10	> 10	0.0139	–
B8	> 10	> 10	> 10	> 10	> 10	> 10	> 10	0.0915	–

— patent US20200024330A1
